Values quoted from earlier work as cited in article PMC6958331.

Target: hemopexin (Homo sapiens) (UniProt P02790)
UniProt P02790, sequence (P02790 24-462): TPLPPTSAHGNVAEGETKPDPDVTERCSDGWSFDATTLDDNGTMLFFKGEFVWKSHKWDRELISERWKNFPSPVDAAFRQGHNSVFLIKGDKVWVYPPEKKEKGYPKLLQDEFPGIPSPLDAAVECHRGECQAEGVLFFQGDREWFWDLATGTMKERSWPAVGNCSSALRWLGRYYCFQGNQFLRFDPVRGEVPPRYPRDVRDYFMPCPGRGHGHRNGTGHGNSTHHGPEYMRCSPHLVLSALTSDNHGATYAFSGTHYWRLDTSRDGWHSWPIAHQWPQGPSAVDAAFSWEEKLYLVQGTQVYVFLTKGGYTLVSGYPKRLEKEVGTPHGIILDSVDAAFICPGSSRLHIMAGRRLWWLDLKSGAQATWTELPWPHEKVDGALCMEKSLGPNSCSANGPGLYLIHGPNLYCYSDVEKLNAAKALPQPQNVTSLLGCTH

Kd: 4 nM
Substance: LRP1/CD91 (from UniProt Q07954)
